For test [1], the target named is Human tyrosinase (human), P14679. As to the kind of experiment: cell-based or functional assay.
Test [2] addresses Mushroom tyrosinase (mushroom), C7FF04. The test is described as follows: cell-based or functional assay.

Chain of Human tyrosinase (human), P14679 (P14679 19-529): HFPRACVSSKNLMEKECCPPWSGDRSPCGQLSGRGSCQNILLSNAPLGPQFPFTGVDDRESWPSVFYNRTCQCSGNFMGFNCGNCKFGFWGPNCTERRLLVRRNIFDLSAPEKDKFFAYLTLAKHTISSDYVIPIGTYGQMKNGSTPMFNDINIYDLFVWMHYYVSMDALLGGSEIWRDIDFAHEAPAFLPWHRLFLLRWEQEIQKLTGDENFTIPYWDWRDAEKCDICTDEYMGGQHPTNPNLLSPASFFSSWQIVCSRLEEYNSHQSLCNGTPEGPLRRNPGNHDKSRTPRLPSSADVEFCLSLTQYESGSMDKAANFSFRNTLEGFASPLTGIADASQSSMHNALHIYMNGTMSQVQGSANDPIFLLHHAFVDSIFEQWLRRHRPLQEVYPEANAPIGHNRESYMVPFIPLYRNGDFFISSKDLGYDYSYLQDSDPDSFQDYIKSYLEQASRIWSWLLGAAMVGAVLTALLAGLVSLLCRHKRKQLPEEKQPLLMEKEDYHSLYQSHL

The molecule RRWWRRYY [P16 peptide] gave a reduction of total melanin content in MNTI cells (3 days, peptide at twice the IC50) in test [1] of 45%.

On to RRFVCC (modifications not checked) [P15 peptide], for which, in test [2], the IC50 [µM], mushroom tyrosinase inhibition (dopachrome OD 475 nm, L-tyrosine substrate) is 1120 µM.

Molecule RRRYWYYR [P17 peptide] came in with a reduction of total melanin content in MNTI cells (3 days, peptide at twice the IC50) in test [1] of 38%. In the case of RRYWYWRR [P18 peptide], the reduction of total melanin content in MNTI cells (3 days, peptide at twice the IC50) in test [1] stood at 41%.

Values taken from patent US20150118286A1.
